The record followed here is patent publication US20250320461A1, “GENETICALLY MODIFIED HUMAN STEM CELL EXPRESSING A MUTANT HUMAN CYTOCHROME P450 2B6 PROTEIN AND ITS USE THEREOF IN THE TREATMENT OF CANCER” (ASSISTANCE PUBLIQUE-HOPITAUX DE PARIS, priority 2019, published 2025).

A short description of the data set: affinity of cytochrome P450 2B6 protein for CPA. The class given is biochemical, human. The source says:
In one particularly advantageous embodiment, said variants and fragments have an affinity for CPA the same as, substantially the same as, or greater than, that of the mutant human cytochrome P450 2B6 protein (CYP2B6*) of SEQ ID No 1.

B1: CYP2B6*: mutant human cytochrome P450 2B6 protein of SEQ ID No. 1 (substitutions I114V, L199M, V477W) (protein, listed as Homo sapiens)
chain: MELSVLLFLALLTGLLLLLVQRHPNTHDRLPPGPRPLPLLGNLLQMDRRGLLKSFLRFREKYGDVFTVHLGPRPVVMLCGVEAIREALVDKAEAFSGRGKIAMVDPFFRGYGVVFANGNRWKVLRRFSVTTMRDFGMGKRSVEERIQEEAQCLIEELRKSKGALMDPTFLFQSITANIICSIVFGKRFHYQDQEFLKMMNLFYQTFSLISSVFGQLFELFSGFLKYFPGAHRQVYKNLQEINAYIGHSVEKHRETLDPSAPKDLIDTYLLHMEKEKSNAHSEFSHQNLNLNTLSLFFAGTETTSTTLRYGFLLMLKYPHVAERVYREIEQVIGPHRPPELHDRAKMPYTEAVIYEIQRFSDLLPMGVPHIVTQHTSFRGYIIPKDTEVFLILSTALHDPHYFEKPDAFNPDHFLDANGALKKTEAFIPFSLGKRICLGEGIARAELFLFFTTILQNFSMASPVAPEDIDLTPQECGWGKIPPTYQIRFLPR
As for B1, the Vmax entry (compared with CYP2B6 WT) is listed as “same”. The “affinity for CPA relative to the wild-type protein (CYP2B6 WT)” value (vs CYP2B6 WT) is recorded as “more than 8 times”.
